Test results from publication PMC8801479.

Key:
the GF and c-AMH = assay: ELISA; c-AMH or GF captured on mAb-C1; various concentrations of AMHR2-Fc/Fc in solution; bound AMHR2-Fc/Fc detected with antihuman-Fc Ab conjugated to HRP; quadratic fit
[1] = target: activin A growth factor growth factor domain (Homo sapiens) (UniProt P08476); details: cited from earlier work
[2] = target: anti-Müllerian hormone growth factor (AMH GF), the mature C-terminal domain (human) (UniProt P03971); assay: ELISA; c-AMH diluted to 1 ng/ml (8.8 pM) in PBS with 1% BSA and 1% goat serum, 10 days at room temperature; ELISA that detects only intact complex; Kd calculated from the fraction of intact complex
[3] = target: anti-Müllerian hormone growth factor (AMH GF), the mature C-terminal domain (human) (UniProt P03971); assay: ELISA; AMHR2-Fc/Fc captured on goat antihuman Fc Ab on the plate; c-AMH 0.03 to 52.83 nM; bound AMH detected with nonbiotinylated mAb-C1 or mAb-N1 and antimouse-Fc-HRP, added one by one or as a preformed complex; data fit globally to the equations of Perelson and DeLisi for ligand-induced receptor dimerization, with the quadratic equation for K_mono and Kbi; [R0] = 0.1 nM
[4] = target: AMHR2-Fc/Fc, heterodimer of one AMHR2-Fc chain (extracellular domain of human AMHR2 fused to human IgG1 Fc) disulfide bonded to one Fc-only chain (human) (UniProt Q16671); assay: as above
[5] = target: AMHR2-Fc/Fc, heterodimer of one AMHR2-Fc chain (extracellular domain of human AMHR2 fused to human IgG1 Fc) disulfide bonded to one Fc-only chain (human) (UniProt Q16671); assay: ELISA; AMHR2-Fc/Fc (0.75 ug/ml) captured on goat antihuman Fc Ab coated on the plate; c-AMH or GF serially diluted, 2 to 4 h; bound AMH detected with biotinylated mAb-C1 (GF) or mAb-N1 (prodomain) and SA-HRP; data fit to the quadratic equation for a reversible association reaction

Chain of cleaved anti-Müllerian hormone (c-AMH), the noncovalent complex of the AMH prodomain with the AMH growth factor (P03971 25-451 limits assumed): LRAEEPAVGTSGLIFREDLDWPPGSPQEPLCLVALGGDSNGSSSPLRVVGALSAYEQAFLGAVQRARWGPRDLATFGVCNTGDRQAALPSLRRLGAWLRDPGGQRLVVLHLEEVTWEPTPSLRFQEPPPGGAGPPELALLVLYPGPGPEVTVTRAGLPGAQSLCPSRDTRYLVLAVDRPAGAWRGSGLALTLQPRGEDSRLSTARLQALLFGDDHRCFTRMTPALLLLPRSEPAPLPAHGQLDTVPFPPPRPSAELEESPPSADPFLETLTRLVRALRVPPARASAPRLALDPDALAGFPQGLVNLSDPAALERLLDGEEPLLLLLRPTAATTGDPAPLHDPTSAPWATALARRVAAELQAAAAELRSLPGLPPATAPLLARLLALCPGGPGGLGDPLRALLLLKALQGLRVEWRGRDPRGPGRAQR
Chain of cleaved anti-Müllerian hormone (c-AMH), the noncovalent complex of the AMH prodomain with the AMH growth factor (P03971 452-560 limits assumed): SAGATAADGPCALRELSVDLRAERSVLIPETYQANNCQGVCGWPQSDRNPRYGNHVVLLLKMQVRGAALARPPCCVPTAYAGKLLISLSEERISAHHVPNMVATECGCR
Chain of anti-Müllerian hormone growth factor (AMH GF), the mature C-terminal domain (human) (P03971 452-560): as the sequence (P03971 452-560 limits assumed) above
Chain of activin A prodomain prodomain (P08476 21-310): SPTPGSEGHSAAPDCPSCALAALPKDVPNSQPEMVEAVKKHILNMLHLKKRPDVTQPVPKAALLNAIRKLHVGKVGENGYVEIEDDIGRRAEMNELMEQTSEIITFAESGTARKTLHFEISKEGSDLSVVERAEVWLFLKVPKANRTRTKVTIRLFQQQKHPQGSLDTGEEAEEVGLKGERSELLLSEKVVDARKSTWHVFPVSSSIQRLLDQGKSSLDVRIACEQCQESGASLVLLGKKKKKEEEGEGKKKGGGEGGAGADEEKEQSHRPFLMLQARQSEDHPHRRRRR
Chain of activin A growth factor growth factor domain (Homo sapiens) (P08476 311-426): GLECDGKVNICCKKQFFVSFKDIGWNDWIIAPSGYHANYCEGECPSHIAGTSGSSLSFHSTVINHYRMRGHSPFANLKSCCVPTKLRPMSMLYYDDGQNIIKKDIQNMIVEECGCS

With “AMHR2-Fc/Fc, heterodimer of one AMHR2-Fc chain (extracellular domain of human AMHR2 fused to human IgG1 Fc) disulfide bonded to one Fc-only chain (from UniProt Q16671 18-149; P01857 104-330) (Fc fusion)” the Kd (the GF and c-AMH) was 3 to 4 nM.
In the case of “activin A prodomain prodomain (from UniProt P08476)”, the Kd [1] is given as 5 nM.
Substance “anti-Müllerian hormone prodomain (N-terminal prodomain of c-AMH) (domain or fragment)” has a Kd [2] of 0.0004 nM, an intact complex left after 10 days at 8.8 pM, percent of samples diluted immediately before the assay [2] of 80% and a KT (apparent dissociation constant of the receptor-bound AMH complex, at [R0] = 100 pM), at 0.03 nM c-AMH [3] of 7.5 pM. The KT (apparent dissociation constant of the receptor-bound AMH complex, at [R0] = 100 pM), at 0.05 nM c-AMH [3] was 22.1 pM, the KT (apparent dissociation constant of the receptor-bound AMH complex, at [R0] = 100 pM), at 0.10 nM c-AMH [3] was 24.3 pM and the KT (apparent dissociation constant of the receptor-bound AMH complex, at [R0] = 100 pM), at 0.21 nM c-AMH [3] was 36.6 pM. It also gave a KT (apparent dissociation constant of the receptor-bound AMH complex, at [R0] = 100 pM), at 0.41 nM c-AMH [3] of 38.7 pM, a KT (apparent dissociation constant of the receptor-bound AMH complex, at [R0] = 100 pM), at 0.83 nM c-AMH [3] of 45.3 pM and a KT (apparent dissociation constant of the receptor-bound AMH complex, at [R0] = 100 pM), at 1.65 nM c-AMH [3] of 26.2 pM. The KT (apparent dissociation constant of the receptor-bound AMH complex, at [R0] = 100 pM), at 3.30 nM c-AMH [3] was 10 pM, the KT (apparent dissociation constant of the receptor-bound AMH complex, at [R0] = 100 pM), at 6.60 nM c-AMH [3] was 6.1 pM and the KT (apparent dissociation constant of the receptor-bound AMH complex, at [R0] = 100 pM), at 13.21 nM c-AMH [3] was 2.7 pM. It also gave a KT (apparent dissociation constant of the receptor-bound AMH complex, at [R0] = 100 pM), at 26.41 nM c-AMH; taken as a measure of K mono [3] of 1 pM, a KT (apparent dissociation constant of the receptor-bound AMH complex, at [R0] = 100 pM), at 52.83 nM c-AMH; taken as a measure of K mono [3] of 0.8 pM and a [NCT]/[RL + RLR], fraction-intact AMH complex, at 0.03 nM c-AMH [3] of 0.29. For the same substance, the [NCT]/[RL + RLR], fraction-intact AMH complex, at 0.05 nM c-AMH [3] was 0.234, the [NCT]/[RL + RLR], fraction-intact AMH complex, at 0.10 nM c-AMH [3] was 0.271 and the [NCT]/[RL + RLR], fraction-intact AMH complex, at 0.21 nM c-AMH [3] was 0.276. For the same substance, the [NCT]/[RL + RLR], fraction-intact AMH complex, at 0.41 nM c-AMH [3] was 0.347, the [NCT]/[RL + RLR], fraction-intact AMH complex, at 0.83 nM c-AMH [3] was 0.386 and the [NCT]/[RL + RLR], fraction-intact AMH complex, at 1.65 nM c-AMH [3] was 0.521. For the same substance, the [NCT]/[RL + RLR], fraction-intact AMH complex, at 3.30 nM c-AMH [3] was 0.688, the [NCT]/[RL + RLR], fraction-intact AMH complex, at 6.60 nM c-AMH [3] was 0.767 and the [NCT]/[RL + RLR], fraction-intact AMH complex, at 13.21 nM c-AMH [3] was 0.845. The [NCT]/[RL + RLR], fraction-intact AMH complex, at 26.41 nM c-AMH [3] was 0.903 and the [NCT]/[RL + RLR], fraction-intact AMH complex, at 52.83 nM c-AMH [3] was 0.917.
With “cleaved anti-Müllerian hormone (c-AMH), the noncovalent complex of the AMH prodomain with the AMH growth factor (from UniProt P03971 452-560)” the K1 (dissociation constant of the initial monovalent binding step; fit of Figure 5C) [4] was 1.1 nM, the K1 (dissociation constant of the initial monovalent binding step; fit of Figure 5D) [4] was 1.1 nM and the [CT]/[R0], bound AMH without prodomain, estimate of [RLR]/[R0], at 0.03 nM c-AMH [4] was 0.031. It also gave a [CT]/[R0], bound AMH without prodomain, estimate of [RLR]/[R0], at 0.05 nM c-AMH [4] of 0.067, a [CT]/[R0], bound AMH without prodomain, estimate of [RLR]/[R0], at 0.10 nM c-AMH [4] of 0.091 and a [CT]/[R0], bound AMH without prodomain, estimate of [RLR]/[R0], at 0.21 nM c-AMH [4] of 0.147. For the same substance, the [CT]/[R0], bound AMH without prodomain, estimate of [RLR]/[R0], at 0.41 nM c-AMH [4] was 0.206, the [CT]/[R0], bound AMH without prodomain, estimate of [RLR]/[R0], at 0.83 nM c-AMH [4] was 0.284 and the [CT]/[R0], bound AMH without prodomain, estimate of [RLR]/[R0], at 1.65 nM c-AMH [4] was 0.285. It also gave a [CT]/[R0], bound AMH without prodomain, estimate of [RLR]/[R0], at 3.30 nM c-AMH [4] of 0.22, a [CT]/[R0], bound AMH without prodomain, estimate of [RLR]/[R0], at 6.60 nM c-AMH [4] of 0.199 and a [CT]/[R0], bound AMH without prodomain, estimate of [RLR]/[R0], at 13.21 nM c-AMH [4] of 0.145. For the same substance, the [CT]/[R0], bound AMH without prodomain, estimate of [RLR]/[R0], at 26.41 nM c-AMH [4] was 0.094, the [CT]/[R0], bound AMH without prodomain, estimate of [RLR]/[R0], at 52.83 nM c-AMH [4] was 0.086 and the [NCT]/[R0], intact AMH complex bound (mAb-N1), estimate of [RL]/[R0], at 0.03 nM c-AMH [4] was 0.013. The [NCT]/[R0], intact AMH complex bound (mAb-N1), estimate of [RL]/[R0], at 0.05 nM c-AMH [4] was 0.021, the [NCT]/[R0], intact AMH complex bound (mAb-N1), estimate of [RL]/[R0], at 0.10 nM c-AMH [4] was 0.034 and the [NCT]/[R0], intact AMH complex bound (mAb-N1), estimate of [RL]/[R0], at 0.21 nM c-AMH [4] was 0.056. The [NCT]/[R0], intact AMH complex bound (mAb-N1), estimate of [RL]/[R0], at 0.41 nM c-AMH [4] was 0.109, the [NCT]/[R0], intact AMH complex bound (mAb-N1), estimate of [RL]/[R0], at 0.83 nM c-AMH [4] was 0.178 and the [NCT]/[R0], intact AMH complex bound (mAb-N1), estimate of [RL]/[R0], at 1.65 nM c-AMH [4] was 0.311. For the same substance, the [NCT]/[R0], intact AMH complex bound (mAb-N1), estimate of [RL]/[R0], at 3.30 nM c-AMH [4] was 0.487, the [NCT]/[R0], intact AMH complex bound (mAb-N1), estimate of [RL]/[R0], at 6.60 nM c-AMH [4] was 0.654 and the [NCT]/[R0], intact AMH complex bound (mAb-N1), estimate of [RL]/[R0], at 13.21 nM c-AMH [4] was 0.794. For the same substance, the [NCT]/[R0], intact AMH complex bound (mAb-N1), estimate of [RL]/[R0], at 26.41 nM c-AMH [4] was 0.871, the [NCT]/[R0], intact AMH complex bound (mAb-N1), estimate of [RL]/[R0], at 52.83 nM c-AMH [4] was 0.941 and the [R0]/K2 (second, bivalent binding step; dimensionless) [4] was 6. For the same substance, the [R0]/K2 (second, bivalent binding step; dimensionless; fit of Figure 5C) [4] was 3.7, the [R0]/K2 (second, bivalent binding step; dimensionless; fit of Figure 5D) [4] was 4.9 and the [RL+2RLR]/[R0], fraction-receptor occupancy, at 0.03 nM c-AMH [4] was 0.103. For the same substance, the [RL+2RLR]/[R0], fraction-receptor occupancy, at 0.05 nM c-AMH [4] was 0.163, the [RL+2RLR]/[R0], fraction-receptor occupancy, at 0.10 nM c-AMH [4] was 0.254 and the [RL+2RLR]/[R0], fraction-receptor occupancy, at 0.21 nM c-AMH [4] was 0.386. It also gave a [RL+2RLR]/[R0], fraction-receptor occupancy, at 0.41 nM c-AMH [4] of 0.538, a [RL+2RLR]/[R0], fraction-receptor occupancy, at 0.83 nM c-AMH [4] of 0.654 and a [RL+2RLR]/[R0], fraction-receptor occupancy, at 1.65 nM c-AMH [4] of 0.789. For the same substance, the [RL+2RLR]/[R0], fraction-receptor occupancy, at 3.30 nM c-AMH [4] was 0.834, the [RL+2RLR]/[R0], fraction-receptor occupancy, at 6.60 nM c-AMH [4] was 0.917 and the [RL+2RLR]/[R0], fraction-receptor occupancy, at 13.21 nM c-AMH [4] was 0.951. For the same substance, the [RL+2RLR]/[R0], fraction-receptor occupancy, at 26.41 nM c-AMH [4] was 0.989, the [RL+2RLR]/[R0], fraction-receptor occupancy, at 52.83 nM c-AMH [4] was 1 and the [RL+RLR]/[R0], fraction-maximal AMH binding, at 0.03 nM c-AMH [4] was 0.043. The [RL+RLR]/[R0], fraction-maximal AMH binding, at 0.05 nM c-AMH [4] was 0.088, the [RL+RLR]/[R0], fraction-maximal AMH binding, at 0.10 nM c-AMH [4] was 0.125 and the [RL+RLR]/[R0], fraction-maximal AMH binding, at 0.21 nM c-AMH [4] was 0.203. The [RL+RLR]/[R0], fraction-maximal AMH binding, at 0.41 nM c-AMH [4] was 0.315, the [RL+RLR]/[R0], fraction-maximal AMH binding, at 0.83 nM c-AMH [4] was 0.463 and the [RL+RLR]/[R0], fraction-maximal AMH binding, at 1.65 nM c-AMH [4] was 0.596. It also gave a [RL+RLR]/[R0], fraction-maximal AMH binding, at 3.30 nM c-AMH [4] of 0.707, a [RL+RLR]/[R0], fraction-maximal AMH binding, at 6.60 nM c-AMH [4] of 0.854 and a [RL+RLR]/[R0], fraction-maximal AMH binding, at 13.21 nM c-AMH [4] of 0.94. It also gave a [RL+RLR]/[R0], fraction-maximal AMH binding, at 26.41 nM c-AMH [4] of 0.965, a [RL+RLR]/[R0], fraction-maximal AMH binding, at 52.83 nM c-AMH [4] of 1.03 and a Kd [5] of 0.3 nM.
